Patent EP0811064B1
“And” between values parts separate entries of the source, which are not always exact repeats. Identical values can stand only once.

What follows are substances tested against full length human mpl receptor expressed on 32D-mpl cells (human) (UniProt P40238) (assay: cell-based or functional assay).

Compared with Met-Lys-mpl ligand 1-174 (E. coli), human mpl ligand 1-163 (CHO) is higher in IN VITRO ACTIVITY U/mg X10E6: 1.3e+07 U/mg for the first, 8.6e+07 U/mg for the second.

Going from human mpl ligand 1-332 (CHO) to “mpl ligand analog N4 [Asn^30, Thr^32] mpl ligand 1-174”, the IN VITRO ACTIVITY U/mg X10E6 rises from 4.1e+07 U/mg to 6e+07 U/mg.

“mpl ligand analog N15 [Asn^30, Thr^32, Asn^120, Thr^122] mpl ligand 1-174” showed an IN VITRO ACTIVITY U/mg X10E6 of 9.2e+07 U/mg.

Compared with “mpl ligand analog N3 [Asn^25] mpl ligand 1-174”, “mpl ligand analog N4 [Asn^30, Thr^32] mpl ligand 1-174” is higher in In Vitro Activity (units/ml): 636 units/ml for the first, 8830 units/ml for the second.

“mpl ligand analog N5 [Asn^38, Thr^40] mpl ligand 1-174” and “mpl ligand analog N6 [Asn^86] mpl ligand 1-174” cannot be ordered by In Vitro Activity (units/ml): less than 10 units/ml for the first, less than 10 units/ml for the second.

Compared with “mpl ligand analog N9 [Asn^92] mpl ligand 1-174”, “mpl ligand analog N11 [Ser^36, Asn^38, Thr^40] mpl ligand 1-174” is lower in In Vitro Activity (units/ml): 1970 units/ml for the first, less than 10 units/ml for the second.

Going from “mpl ligand analog N13 [Asn^53, Thr^55] mpl ligand 1-174” to “mpl ligand analog N14 [Asn^58, Thr^60] mpl ligand 1-174”, the In Vitro Activity (units/ml) falls from 18000 units/ml to 4850 units/ml.

Substance “mpl ligand analog N15 [Asn^30, Thr^32, Asn^120, Thr^122] mpl ligand 1-174” has an In Vitro Activity (units/ml) of 6420 units/ml.

Going from “mpl ligand analog N3 [Asn^25] mpl ligand 1-174” to “mpl ligand analog N4 [Asn^30, Thr^32] mpl ligand 1-174”, the Specific Activity (units/ ng) falls from 344 units/ng to 232 units/ng.

“mpl ligand analog N5 [Asn^38, Thr^40] mpl ligand 1-174” and “mpl ligand analog N6 [Asn^86] mpl ligand 1-174” cannot be ordered by Specific Activity (units/ ng): less than 8 units/ng for the first, less than 22 units/ng for the second.

Compared with “mpl ligand analog N9 [Asn^92] mpl ligand 1-174”, “mpl ligand analog N11 [Ser^36, Asn^38, Thr^40] mpl ligand 1-174” is lower in Specific Activity (units/ ng): 188 units/ng for the first, less than 8 units/ng for the second.

Compared with “mpl ligand analog N13 [Asn^53, Thr^55] mpl ligand 1-174”, “mpl ligand analog N14 [Asn^58, Thr^60] mpl ligand 1-174” is higher in Specific Activity (units/ ng): 269 units/ng for the first, 271 units/ng for the second.

With “mpl ligand analog N15 [Asn^30, Thr^32, Asn^120, Thr^122] mpl ligand 1-174” the Specific Activity (units/ ng) was 247 units/ng.

For “mpl ligand analog N7 [Asn^82, Ala^83] mpl ligand 1-174”, the In Vitro Activity (units/ml) was 2660 units/ml and 3080 units/ml.
In the case of “mpl ligand analog N10 [Asn^120, Thr^122] mpl ligand 1-174”, the In Vitro Activity (units/ml) is reported as 5940 units/ml and 9690 units/ml.

With “mpl ligand analog N7 [Asn^82, Ala^83] mpl ligand 1-174” the Specific Activity (units/ ng) was 443 units/ng and 655 units/ng.
In the case of “mpl ligand analog N10 [Asn^120, Thr^122] mpl ligand 1-174”, the Specific Activity (units/ ng) is reported as 291 units/ng and 288 units/ng.

Molecular target: full length human mpl receptor expressed on 32D-mpl cells (human) (UniProt P40238)
Experiment: cell-based or functional assay
Remark: another data set of the same source

First: mpl ligand 1-183 (N16)
Second: mpl ligand 1-191 (N17)
The In Vitro Activity (units/ml) of the first is higher: 9280 units/ml for the first, 11 units/ml for the second.

First: mpl ligand 1-199 (N31)
Second: mpl ligand analog N15 [Asn^30, Thr^32, Asn^120, Thr^122] mpl ligand 1-174
The In Vitro Activity (units/ml) of the first is higher: 19000 units/ml for the first, 7000 units/ml for the second.

“mpl ligand analog N18 [Asn^23, Ser^25] mpl ligand 1-174” and “mpl ligand analog N20 [Asn^39, Ser^41] mpl ligand 1-174” cannot be ordered by In Vitro Activity (units/ml): 5 units/ml for the first, less than 10 units/ml for the second.

First: mpl ligand analog N21 [Asn^54, Ser^56] mpl ligand 1-174
Second: mpl ligand analog N22 [Asn^52, Thr^54] mpl ligand 1-174
The In Vitro Activity (units/ml) of the first is higher: 4380 units/ml for the first, 856 units/ml for the second.

Going from “mpl ligand analog N23 [Asn^55'(i), Thr^57] mpl ligand 1-174” to “mpl ligand analog N24 [Asn^57, Ser^59] mpl ligand 1-174”, the In Vitro Activity (units/ml) falls from 1060 units/ml to 458 units/ml.

Compared with “mpl ligand analog N25 [Asn^81, Thr^83] mpl ligand 1-174”, “mpl ligand analog N26 [Asn^118, Ser^120] mpl ligand 1-174” is lower in In Vitro Activity (units/ml): 123 units/ml for the first, 96 units/ml for the second.

Going from “mpl ligand analog N27 [Asn^119, Ser^121] mpl ligand 1-174” to “mpl ligand analog N29 [Asn^30, Ser^32, Asn^120, Ser^122] mpl ligand 1-174”, the In Vitro Activity (units/ml) rises from 338 units/ml to 1630 units/ml.

Going from “mpl ligand analog N30 [Thr^163, Asn^164] mpl ligand 1-174” to “mpl ligand analog N33 [Asn^30, Thr^32, Asn^120, Thr^122, Asn^55'(i), Thr^57] mpl ligand 1-174”, the In Vitro Activity (units/ml) falls from 15600 units/ml to 10100 units/ml.

First: mpl ligand analog N34 [Asn^30, Thr^32, Asn^55'(i), Thr^57, Thr^163, Asn^164] mpl ligand 1-174
Second: mpl ligand analog N35 (N4+N23+N30 changes in mpl ligand 1-199)
The In Vitro Activity (units/ml) of the first is higher: 13500 units/ml for the first, 13100 units/ml for the second.

First: mpl ligand analog N36 [Asn^55, Thr^57] mpl ligand 1-174
Second: mpl ligand analog N37 [Asn^56] mpl ligand 1-174
The In Vitro Activity (units/ml) of the first is higher: 5810 units/ml for the first, 4500 units/ml for the second.

Going from “mpl ligand analog N38 [Thr^163, Asn^164, Thr^166] mpl ligand 1-174” to “mpl ligand analog N39 [Asn^30, Thr^32, Asn^120, Thr^122, Asn^55, Thr^57, Thr^163, Asn^164, Thr^166] mpl ligand 1-174”, the In Vitro Activity (units/ml) rises from 3900 units/ml to 17700 units/ml.

“mpl ligand analog N40 (N4+N10+N36+N38 changes in mpl ligand 1-199)” gave an In Vitro Activity (units/ml) of 19700 units/ml.

Going from mpl ligand 1-199 (N31) to “mpl ligand analog N15 [Asn^30, Thr^32, Asn^120, Thr^122] mpl ligand 1-174”, the Specific Activity (units/ ng) rises from 122 units/ng to 156 units/ng.

Compared with “mpl ligand analog N18 [Asn^23, Ser^25] mpl ligand 1-174”, “mpl ligand analog N21 [Asn^54, Ser^56] mpl ligand 1-174” is higher in Specific Activity (units/ ng): 2.5 units/ng for the first, 146 units/ng for the second.

Going from “mpl ligand analog N22 [Asn^52, Thr^54] mpl ligand 1-174” to “mpl ligand analog N23 [Asn^55'(i), Thr^57] mpl ligand 1-174”, the Specific Activity (units/ ng) falls from 428 units/ng to 96 units/ng.

Going from “mpl ligand analog N24 [Asn^57, Ser^59] mpl ligand 1-174” to “mpl ligand analog N25 [Asn^81, Thr^83] mpl ligand 1-174”, the Specific Activity (units/ ng) rises from 86 units/ng to 559 units/ng.

Compared with “mpl ligand analog N26 [Asn^118, Ser^120] mpl ligand 1-174”, “mpl ligand analog N27 [Asn^119, Ser^121] mpl ligand 1-174” is lower in Specific Activity (units/ ng): 106 units/ng for the first, 75 units/ng for the second.

Compared with “mpl ligand analog N29 [Asn^30, Ser^32, Asn^120, Ser^122] mpl ligand 1-174”, “mpl ligand analog N30 [Thr^163, Asn^164] mpl ligand 1-174” is higher in Specific Activity (units/ ng): 108 units/ng for the first, 122 units/ng for the second.

Compared with “mpl ligand analog N33 [Asn^30, Thr^32, Asn^120, Thr^122, Asn^55'(i), Thr^57] mpl ligand 1-174”, “mpl ligand analog N34 [Asn^30, Thr^32, Asn^55'(i), Thr^57, Thr^163, Asn^164] mpl ligand 1-174” is lower in Specific Activity (units/ ng): 129 units/ng for the first, 120 units/ng for the second.

First: mpl ligand analog N35 (N4+N23+N30 changes in mpl ligand 1-199)
Second: mpl ligand analog N36 [Asn^55, Thr^57] mpl ligand 1-174
The Specific Activity (units/ ng) of the first is lower: 76 units/ng for the first, 121 units/ng for the second.

Going from “mpl ligand analog N37 [Asn^56] mpl ligand 1-174” to “mpl ligand analog N38 [Thr^163, Asn^164, Thr^166] mpl ligand 1-174”, the Specific Activity (units/ ng) rises from 141 units/ng to 156 units/ng.

First: mpl ligand analog N39 [Asn^30, Thr^32, Asn^120, Thr^122, Asn^55, Thr^57, Thr^163, Asn^164, Thr^166] mpl ligand 1-174
Second: mpl ligand analog N40 (N4+N10+N36+N38 changes in mpl ligand 1-199)
The Specific Activity (units/ ng) of the first is lower: 139 units/ng for the first, 147 units/ng for the second.
